Test results: patent publication US20250270332A1

Biological target: FZD/LRP
Experiment: cell-based or functional assay

Sequence of Wnt3a, recombinantly produced ligand (P56704 19-352): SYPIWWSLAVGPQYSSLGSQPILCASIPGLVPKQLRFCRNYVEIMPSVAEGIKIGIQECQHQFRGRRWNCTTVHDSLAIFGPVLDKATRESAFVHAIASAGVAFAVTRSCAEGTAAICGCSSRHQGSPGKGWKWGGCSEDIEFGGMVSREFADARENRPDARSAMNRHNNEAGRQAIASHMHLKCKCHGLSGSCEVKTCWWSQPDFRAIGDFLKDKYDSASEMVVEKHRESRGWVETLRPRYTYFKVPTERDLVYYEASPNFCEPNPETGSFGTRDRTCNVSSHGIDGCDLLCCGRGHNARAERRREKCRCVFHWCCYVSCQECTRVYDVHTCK

% Wnt Maxima Avg: 100%
EC50 (nM), TOPFLASH assay: 6 nM
Maximal Signal (% Wnt3a maxima) (% Wnt3a maxima): 100
Topflash EC50 (nM) Avg: 6 nM
Substance: Wnt3a, recombinantly produced ligand
